These results are taken from article PMC11729874, “How J-chain ensures the assembly of immunoglobulin IgM pentamers” (The EMBO Journal, 2024).

For data set [1], the target named is murine Cμ4tp domain, recombinant (mouse). The experiment in a line: SEC; analytical SE-HPLC, Superdex 200 Increase 10/300, PBS pH 7.4, 25 °C; 1 mg/mL Cµ4tp (DTT removed) and/or 0.5 mg/mL J chain (if not stated otherwise) incubated 24 h at room temperature.
Data set [2] concerns the molecule itself. The experiment in a line: nonreducing SDS-PAGE and western blot of covalent assemblies; HEK293/HEK293T co-transfected with H-Cµ234tp and JC variants, 48 h; RIPA lysates with 10 mM NEM and TCA-precipitated supernatants; Halo ligands, anti-JC, anti-µ.
Data set [3] deals with the molecule itself. The experiment in a line: cross-linking; disulfide mapping of recombinant JC by cross-linking MS: denatured, alkylated with iodoacetamide, trypsin and Asp-N, HPLC-MS/MS, Kojak with disulfide as crosslinker.
The target in data set [4] is murine Cμ4tp domain, recombinant (mouse). The experiment in a line: SEC; analytical SE-HPLC, Superdex 200 Increase 10/300, PBS pH 7.4, 25 °C; 1 mg/mL Cµ4tp (DTT removed) and/or 0.5 mg/mL J chain (if not stated otherwise) incubated 24 h at room temperature. The source holds these as a separate data set.

As to “murine Cμ4tp domain, recombinant (domain or fragment)”, in data set [1], the stoichiometry N turned out to be 2 chains and the stoichiometry N (Cµ4tp2 dimers) was 6.

B1: Halo-tagged truncated µs variant lacking the variable and first constant domains (H-Cµ234tp) (domain or fragment, UniProt P01872 106-454, looked up)
chain: VAEMNPNVNVFVPPRDGFSGPAPRKSKLICEATNFTPKPITVSWLKDGKLVESGFTTDPVTIENKGSTPQTYKVISTLTISEIDWLNLNVYTCRVDHRGLTFLKNVSSTCAASPSTDILTFTIPPSFADIFLSKSANLTCLVSNLATYETLNISWASQSGEPLETKIKIMESHPNGTFSAKGVASVCVEDWNNRKEFVCTVTHRDLPSPQKKFISKPNEVHKHPPAVYLLPPAREQLNLRESATVTCLVKGFSPADISVQWLQRGQLLPQEKYVTSAPMPEPGAPGFYFTHSILTVTEEEWNSGETYTCVVGHEALPHLVTERTVDKSTGKPTLYNVSLIMSDTGGTCY
notes: secretory Ig µ heavy chain without the variable and first constant domains: Cµ2, Cµ3, Cµ4 and the tailpiece; the gene carries a signal peptide; Detected with anti-mouse IgM (µ chain); also called Halo-Cµ234tp; H-Cµ234tp WT; source: HEK293/HEK293T or HeLa-ERp44KO, transfected, in lysate or supernatant
For B1, the “stoichiometry N” value in data set [2] was 6 H-Cµ234tp2 subunits (dimers).

B2: murine Joining Chain wild type, recombinant (natural protein, mouse)
chain: MGDDEATILADNKCMCTRVTSRIIPSTEDPNEDIVERNIRIVVPLNNRENISDPTSPLRRNFVYHLSDVCKKCDPVEVELEDQVVTATQSNICNEDDGVPETCYMYDRNKCYTTMVPLRYHGETKMVQAALTPDSCYPD
notes: methionine added at position 1; murine joining chain (J chain), G22-D159 of the precursor; Heterogeneous native and non-native disulfides; largely unstructured by CD; also called JC; J chain
Take B2: the binding result in data set [3] is “binds”. The stoichiometry N (JC per (Cµ4tp2)5) in data set [4] worked out at 1.
